{"source": "paper PMC10600506", "about": "“A potent and broad‐spectrum neutralizing nanobody for SARS‐CoV‐2 viruses, including all major Omicron strains” (MedComm, 2023)", "binders": {"B1": {"name": "Nb8 (VHH)", "VHH": "AVQLQASGGGFVQPGGSLRLSCAASGILGTNTWMGWFRQAPGKEREFVSAINYWTEPEYYADSVKGRFTISRDNSKNTVYLQMNSLRAEDTATYYCAQQNMDLNFDVFAWEYWGQGTQVTVSS"}, "B2": {"name": "Nb24 (VHH)", "VHH": "AVQLQASGGGFVQPGGSLRLSCAASGHWPWTGFMGWFRQAPGKEREFVSAIVEYGWPTYYADSVKGRFTISRDNSKNTVYLQMNSLRAEDTATYYCAIAGLIAPEFEQMPVYWGQGTQVTVSS"}, "B3": {"name": "Nb26 (VHH)", "VHH": "AVQLQASGGGFVQPGGSLRLSCAASGNYYPFTFMGWFRQAPGKEREFVSAIVTDYNKNYYADSVKGRFTISRDNSKNTVYLQMNSLRAEDTATYYCAYQDHSLIVESSGHMYWGQGTQVTVSS"}}}
{"target": "SARS-CoV-2 Omicron BA.1 Spike receptor-binding domain (SARS-CoV-2 Omicron BA.1, strain, biotin on the Avi tag (for phage screening and BLI); not biotinylated for crystallisation)"}
{"binder": "B1", "binding result": "binds"}
{"binder": "B2", "binding result": "binds"}
{"binder": "B3", "binding result": "binds"}
